# Results reported in patent publication US20100278929A1 (MEDLMMUNE, published 2010).
# Changes are numbered by the printed parent chain. Numbers in names are those of the source.
# B1: palivizumab (antibody, V domains shown)
# VH: QVTLRESGPALVKPTQTLTLTCTFSGFSLSTSGMSVGWIRQPPGKALEWLADIWWDDKKDYNPSLKSRLTISKDTSKNQVVLKVTNMDPADTATYYCARSMITNWYFDVWGAGTTVTVSS
# VL: DIQMTQSPSTLSASVGDRVTITCKCQLSVGYMHWYQQKPGKAPKLLIYDTSKLASGVPSRFSGSGSGTEFTLTISSLQPDDFATYYCFQGSGYPFTFGGGTKLEIK
# notes: also called SYNAGIS
# B2: A4B4L1FR-S28R (motavizumab) (antibody, V domains shown)
# VH: B1 VH with S32A, D60H, S67D, S100D, T103F, W105F, A112Q
# VL: B1 VL with K24S, C25A, Q26S, L27S, S28R, L103V
# Assays:
# [1] = target: T1, RSV (Long strain) F protein on infectious virus (respiratory syncytial virus (Long …, UniProt P12568 26-574)); experiment: cell-based or functional assay
# [2] = target: T1, RSV (Long strain) F protein on …; experiment: cell-based or functional assay; remark: listed apart in the source
# [3] = target: T1, RSV (Long strain) F protein on …; experiment: cell-based or functional assay; remark: listed apart in the source
# [4] = target: T2, recombinantly produced, C-terminally truncated RSV (A2 strain) F protein (respiratory syncytial virus (A2 strain), UniProt P03420 26-524); experiment: SPR, BIAcore 3000; F protein coupled at low density to CM5 chip; KD = koff/kon
# T2 construct: extracellular domain; also called RSV F protein; truncated F protein
# T2 sequence (P03420 26-109, chain 1 of 2): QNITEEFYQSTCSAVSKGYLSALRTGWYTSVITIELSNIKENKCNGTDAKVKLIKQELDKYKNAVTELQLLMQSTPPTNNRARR
# T2 sequence (P03420 137-524, chain 2 of 2): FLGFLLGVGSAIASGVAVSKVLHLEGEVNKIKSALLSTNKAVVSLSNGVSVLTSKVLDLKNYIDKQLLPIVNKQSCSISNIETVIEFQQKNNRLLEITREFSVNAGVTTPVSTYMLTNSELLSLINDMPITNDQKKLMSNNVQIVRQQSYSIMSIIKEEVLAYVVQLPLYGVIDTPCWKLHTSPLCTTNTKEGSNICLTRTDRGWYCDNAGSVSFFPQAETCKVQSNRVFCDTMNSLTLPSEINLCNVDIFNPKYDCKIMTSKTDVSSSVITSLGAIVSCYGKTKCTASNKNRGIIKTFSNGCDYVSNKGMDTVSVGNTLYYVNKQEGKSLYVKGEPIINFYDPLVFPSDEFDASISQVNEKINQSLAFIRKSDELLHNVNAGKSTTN
# Method: (§1) Purified F protein was covalently coupled to an N-hydroxysuccinimide-N-ethyl-N′-[3-diethylaminopropyl]-carbodiimide (EDC/NHS) activated CM5 sensor chip at a low protein density according to the manufacturer's protocol; unreacted active ester groups were blocked with 1 M ethanolamine. For reference purposes, a blank surface, containing no antigen, was prepared under identical immobilization conditions.
# (§2) For kinetic measurements, a serial 2-fold dilution series of each mAb from 100 nm-0.2 nm, made in instrument buffer (HBS/Tween-20, BIAcore, Inc.), was injected over the F-protein and reference cell surfaces, which are connected in series. In each analysis, following the dissociation phase, the remaining bound antibody was removed from the sensor chip by passing a brief pulse of 100 mM HCl over the surface. Once an entire data set was collected, the resulting binding curves were globally fitted to a 1:1 Langmuir binding model using BIAevaluation software (BIAcore, Inc., Piscataway, N.J.). This algorithm calculates both the association rate (kₒₙ) and the dissociation rate (koff), from which the apparent equilibrium binding constant, KD, for each antibody was deduced as the ratio of the two rate constants, koff/kₒₙ.
# [5] = target: T2, recombinantly produced, C-terminally …; experiment: SPR, BIAcore 3000; F protein coupled at low density to CM5 chip, mAb injected at 100-0.2 nM; 1:1 Langmuir fit
# Method: as §1, §2
# [6] = target: T1, RSV (Long strain) F protein on …; experiment: cell-based or functional assay; remark: listed apart in the source
Binder,"Mean IC50 (Control), RSV microneutralization [1]","Mean IC50 (Curve), RSV microneutralization [1]","average IC50, RSV microneutralization assay [2]",IC50 (read off the curve) [3],Kd [4],koff [5],kon [5],"fold potency against palivizumab, RSV microneutralization assay [2]",IC50 (read off the curve); sample: Cyno-69 BAL [6],IC50 (read off the curve); sample: purified MEDI-524 control [6]
B1,0.535 mg/L,0.453 mg/L,0.315 mg/L,~0.4 mg/L,3.46 nM,0.000395 s⁻¹,114000 M⁻¹ s⁻¹,,,
B2,,,0.018 mg/L,~0.02 mg/L,,,,~18 fold,~0.01 mg/L,~0.007 mg/L
